The chains are these.
B1: Forkhead box protein R2 (Homo sapiens), Q6PJQ5 (parent)
chain: MDLKLKDCEFWYSLHGQVPGLLDWDMRNELFLPCTTDQCSLAEQILAKYRVGVMKPPEMPQKRRPSPDGDGPPCEPNLWMWVDPNILCPLGSQEAPKPSGKEDLTNISPFPQPPQKDEGSNCSEDKVVESLPSSSSEQSPLQKQGIHSPSDFELTEEEAEEPDDNSLQSPEMKCYQSQKLWQINNQEKSWQRPPLNCSHLIALALRNNPHCGLSVQEIYNFTRQHFPFFWTAPDGWKSTIHYNLCFLDSFEKVPDSLKDEDNARPRSCLWKLTKEGHRRFWEETRVLAFAQRERIQECMSQPELLTSLFDL
partner: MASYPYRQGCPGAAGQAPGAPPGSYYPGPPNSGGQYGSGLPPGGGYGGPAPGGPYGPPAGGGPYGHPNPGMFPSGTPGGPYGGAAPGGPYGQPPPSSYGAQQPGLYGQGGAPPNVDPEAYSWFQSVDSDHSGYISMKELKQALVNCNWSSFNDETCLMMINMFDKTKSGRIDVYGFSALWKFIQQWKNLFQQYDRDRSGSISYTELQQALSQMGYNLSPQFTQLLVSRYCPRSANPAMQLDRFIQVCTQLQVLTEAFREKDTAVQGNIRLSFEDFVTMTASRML
B2: E3 ubiquitin-protein ligase RNF8 (Homo sapiens), O76064 (parent)
chain: MGEPGFFVTGDRAGGRSWCLRRVGMSAGWLLLEDGCEVTVGRGFGVTYQLVSKICPLMISRNHCVLKQNPEGQWTIMDNKSLNGVWLNRARLEPLRVYSIHQGDYIQLGVPLENKENAEYEYEVTEEDWETIYPCLSPKNDQMIEKNKELRTKRKFSLDELAGPGAEGPSNLKSKINKVSCESGQPVKSQGKGEVASTPSDNLDPKLTALEPSKTTGAPIYPGFPKVTEVHHEQKASNSSASQRSLQMFKVTMSRILRLKIQMQEKHEAVMNVKKQTQKGNSKKVVQMEQELQDLQSQLCAEQAQQQARVEQLEKTFQEEEQHLQGLEIAQGEKDLKQQLAQALQEHWALMEELNRSKKDFEAIIQAKNKELEQTKEEKEKMQAQKEEVLSHMNDVLENELQCIICSEYFIEAVTLNCAHSFCSYCINEWMKRKIECPICRKDIKSKTYSLVLDNCINKMVNNLSSEVKERRIVLIRERKAKRLF
B3: Beta-taxilin (Homo sapiens), Q8N3L3 (parent)
chain: MEANHSEQLSAERQSTPPGDSSSLPSHNGLEKEDGQDSPTPVQPPEKEASVHPDISEELNRQLEDIINTYGSAASTAGKEGSARASEQPENAESPDNEDGDCEETTEEAGREPVASGEPPTVKEPVSNKEQKLEKKILKGLGKEANLLMQNLNKLQTPEEKFDFLFKKYAELLDEHRTEQKKLKLLQKKQVQIQKEKDQLQGEHSRAILARSKLESLCRELQRHNKTLKEEALQRAREEEEKRKEITSHFQSTLTDIQGQIEQQSERNMKLCQENTELAEKLKSIIDQYELREEHLDKIFKHRELQQKLVDAKLEQAQEMMKEAEERHKREKEYLLNQAAEWKLQAKVLKEQETVLQAQLTLYSGRFEEFQSTLTKSNEVFATFKQEMDKTTKKMKKLEKDTATWKARFENCNKALLDMIEEKALRAKEYECFVMKIGRLENLCRALQEERNELHKKIRDAEISEKDDQSQHNSDEEPESNVSVDQEIDAEEVNSVQTAVKNLATAFMIIHHPESTPHQSKETQPEIGSSQESADAALKEPEQPPLIPSRDSESPLPPLTPQAEAEGGSDAEPPSKASNSPAGLGAETQCEGLPVGAQADQASWKPEAEASGQAPQAPTEASLQKMEADVPAPACAAEEHVAAMVPACEPSRQPPRAAAEELPVGASAGPQPRNVADTNLEGVD
partner: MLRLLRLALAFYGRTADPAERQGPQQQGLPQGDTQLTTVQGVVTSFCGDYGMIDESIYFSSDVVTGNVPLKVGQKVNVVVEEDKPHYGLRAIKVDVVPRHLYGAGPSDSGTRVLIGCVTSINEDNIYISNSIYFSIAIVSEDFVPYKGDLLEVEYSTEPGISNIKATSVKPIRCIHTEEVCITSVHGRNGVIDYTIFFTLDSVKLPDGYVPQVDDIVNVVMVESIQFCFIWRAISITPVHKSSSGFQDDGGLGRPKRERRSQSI
B4: Keratin, type I cytoskeletal 18 (Homo sapiens), P05783 (parent)
chain: MSFTTRSTFSTNYRSLGSVQAPSYGARPVSSAASVYAGAGGSGSRISVSRSTSFRGGMGSGGLATGIAGGLAGMGGIQNEKETMQSLNDRLASYLDRVRSLETENRRLESKIREHLEKKGPQVRDWSHYFKIIEDLRAQIFANTVDNARIVLQIDNARLAADDFRVKYETELAMRQSVENDIHGLRKVIDDTNITRLQLETEIEALKEELLFMKKNHEEEVKGLQAQIASSGLTVEVDAPKSQDLAKIMADIRAQYDELARKNREELDKYWSQQIEESTTVVTTQSAEVGAAETTLTELRRTVQSLEIDLDSMRNLKASLENSLREVEARYALQMEQLNGILLHLESELAQTRAEGQRQAQEYEALLNIKVKLEAEIATYRRLLEDGEDFNLGDALDSSNSMQTIQKTTTRRIVDGKVVSETNDTKVLRH

In the first experiment the parent is B1. As to conditions: with pef1_human PEF1, Q9UBV8.
As to MDLKLKDCEFWYSLHGQVPGLLDWDMRNELFLPCTTDQCSLAEQILAKYRVGVMKPPEMPQKRRPSPDGDGPPCEPNLWMWVDPNILCPLGSQEAPKPSGKEDLTNISPFPQPPQKDEGSNCSEDKVVESLPSSSSEQSPLQKQGIHSPSDFELTEEEAEEPDDNSLQSPEMKCYQSQKLWQINNQEKSWQRPPLNCSHLIALALRNNPHCGLSVQEIYNFTRQHFPFFWTAPDGWKSTIHYNLCFLDSFEKVPDSLKDEDNARPRSCLWKLTKEGHRRFWEETRALAFAQRERIQECMSQPELLTSLFDL [V286A], the “effect of a mutation on the interaction” value is on record as “with no effect”.

A further experiment covers variants of B2. The following applies: with sept3_human SEPTIN3, Q9UH03.
sept3_human SEPTIN3, Q9UH03, sequence (Q9UH03 whole entry): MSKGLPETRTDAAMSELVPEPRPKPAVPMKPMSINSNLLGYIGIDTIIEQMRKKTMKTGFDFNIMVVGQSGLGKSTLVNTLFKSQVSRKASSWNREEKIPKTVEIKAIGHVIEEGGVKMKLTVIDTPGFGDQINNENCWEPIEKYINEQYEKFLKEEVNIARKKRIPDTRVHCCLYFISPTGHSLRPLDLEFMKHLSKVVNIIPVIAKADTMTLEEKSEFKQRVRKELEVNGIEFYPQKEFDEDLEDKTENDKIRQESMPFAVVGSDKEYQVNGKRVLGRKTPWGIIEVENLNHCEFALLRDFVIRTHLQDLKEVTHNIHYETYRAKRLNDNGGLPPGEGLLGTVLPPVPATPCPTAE
For MGEPGFFVTGDRAGGRSWCLRRVGMSAGWLLLEDGCEVTVGRGFGVTYQLVSKICPLMISRNHCVLKQNPEGQWTIMDNKSLNGVWLNRARLEPLRVYSIHQGDYIQLGVPLENKENAEYEYEVTEEDWETIYPCLSPKNDQMIEKNKELRTKRKFSLDELAGPGAEGPSNLKSKINKVSCESGQPVKSQGKGEVASTPSDNLDPKLTALEPSKTTGAPIYPGFPKVTEVHHEQKASNSSASQRSLQMFKVTMSRILRLKIQMQEKHEAVMNVKKQTQKGNSKKVVQMEQELQDLQSQLCAEQAQQQARLEQLEKTFQEEEQHLQGLEIAQGEKDLKQQLAQALQEHWALMEELNRSKKDFEAIIQAKNKELEQTKEEKEKMQAQKEEVLSHMNDVLENELQCIICSEYFIEAVTLNCAHSFCSYCINEWMKRKIECPICRKDIKSKTYSLVLDNCINKMVNNLSSEVKERRIVLIRERKAKRLF [V310L], the “effect of a mutation on the interaction” value is reported as “with no effect”.

The variants in a further experiment derive from B2. The following applies: with wasl_human WASL.
For MGEPGFFVTGDRAGGRSWCLRRVGMSAGWLLLEDGCEVTVGRGFGVTYQLVSKICPLMISRNHCVLKQNPEGQWTIMDNKSLNGVWLNRARLEPLRVYSIHQGDYIQLGVPLENKENAEYEYEVTEEDWETIYPCLSPKNDQMIEKNKELRTKRKFSLDELAGPGAEGPSNLKSKINKVSCESGQPVKSQGKGEVASTPSDNLDPKLTALEPSKTTGAPIYPGFPKVTEVHHEQKASNSSASQRSLQMFKVTMSRILRLKIQMQEKHEAVMNVKKQTQKGNSKKVVQMEQELQDLQSQLCAEQAQQQARLEQLEKTFQEEEQHLQGLEIAQGEKDLKQQLAQALQEHWALMEELNRSKKDFEAIIQAKNKELEQTKEEKEKMQAQKEEVLSHMNDVLENELQCIICSEYFIEAVTLNCAHSFCSYCINEWMKRKIECPICRKDIKSKTYSLVLDNCINKMVNNLSSEVKERRIVLIRERKAKRLF [V310L], the “effect of a mutation on the interaction” value was “with no effect”.

The variants in another experiment derive from B3. The following applies: with ct55_human CT55, Q8WUE5.
Regarding T523I, the “effect of a mutation on the interaction” value is “with no effect”.

Turning to T361A, the “effect of a mutation on the interaction” value is “with no effect”.

Variants of B4 are the subject of the next experiment. The following applies: with KRT15, P19012.
KRT15, P19012, sequence (P19012 whole entry): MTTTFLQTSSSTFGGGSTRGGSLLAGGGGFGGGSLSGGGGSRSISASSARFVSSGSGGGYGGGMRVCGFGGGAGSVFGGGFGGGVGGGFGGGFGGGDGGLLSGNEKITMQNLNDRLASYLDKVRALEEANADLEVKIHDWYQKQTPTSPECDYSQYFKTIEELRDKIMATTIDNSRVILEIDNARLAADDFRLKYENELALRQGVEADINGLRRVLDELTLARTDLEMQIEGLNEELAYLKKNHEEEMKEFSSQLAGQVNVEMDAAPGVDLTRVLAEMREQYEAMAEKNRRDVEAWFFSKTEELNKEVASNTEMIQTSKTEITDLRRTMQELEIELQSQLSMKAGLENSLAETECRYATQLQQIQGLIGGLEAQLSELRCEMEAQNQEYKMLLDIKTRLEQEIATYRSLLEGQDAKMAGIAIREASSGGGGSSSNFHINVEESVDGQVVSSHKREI
On to MSFTTRSTFSTNYRSLGSVQAPSYGARPVSSAASVYAGAGGSGSRISVSRSTSFRGGMGSGGLATGIAGGLAGMGGIQNEKETMQSLNDRLASYLDRVRSLETENRRLESKIREHLEKKGPQVRDWSHYFKIIEDLRAQIFANTVDNARVVLQIDNARLAADDFRVKYETELAMRQSVENDIHGLRKVIDDTNITRLQLETEIEALKEELLFMKKNHEEEVKGLQAQIASSGLTVEVDAPKSQDLAKIMADIRAQYDELARKNREELDKYWSQQIEESTTVVTTQSAEVGAAETTLTELRRTVQSLEIDLDSMRNLKASLENSLREVEARYALQMEQLNGILLHLESELAQTRAEGQRQAQEYEALLNIKVKLEAEIATYRRLLEDGEDFNLGDALDSSNSMQTIQKTTTRRIVDGKVVSETNDTKVLRH [I150V], for which the “effect of a mutation on the interaction” value is recorded as “with no effect”.

The values are drawn from IntAct's records for PubMed 31515488.
